Source: patent US20250297019A1

Target: human CCR8 (human) (UniProt P51685)
Test: cell-based or functional assay

B1: murine anti-human CCR8 mAb 433H (BD Biosciences) (antibody, from another filing, mouse IgG2a, V domains shown)
VH: EVQLVETGGGLVQPKGSLRLSCAASGFPFNTFAMNWVRQAPGKGLEWLARIRSKSNNYATYYADSVKDRFTISRDDSRRMLYLLMNNVKFEDTAIYYCVRGKENNYGYAMDYWGQGTSVTVSS
VL: DIVMTQAAPSVPVTPGESVSISCRSSQSLLHSNGNTYLYWFLQRPGQSPQLLIYRMSNLASGVPDRFSGSGSGTAFTLRISRVEAEDVGVYYCMQHLEYPFTFGIGTKLELKR
With B1 the IC50 of CCL1 blocking (Ca2+ influx, CHO/hCCR8.Gna15 cells) was 17.6 nM, the induction fold at plateau (about 40 nM antibody), mFcgRIV Jurkat reporter with CHO/hCCR8 was 13 fold and the induction fold, mFcgRIV Jurkat NFAT-luciferase reporter with CHO/hCCR8, at about 1 nM antibody was > 12 fold.
